Assay results from US20060110789.

Tests used:
[1] = molecular target: T1, diketide-ACP4(4) (DEBS ACP4 with its natural C-terminal linker, loaded with diketide), Q03132
T1 chain: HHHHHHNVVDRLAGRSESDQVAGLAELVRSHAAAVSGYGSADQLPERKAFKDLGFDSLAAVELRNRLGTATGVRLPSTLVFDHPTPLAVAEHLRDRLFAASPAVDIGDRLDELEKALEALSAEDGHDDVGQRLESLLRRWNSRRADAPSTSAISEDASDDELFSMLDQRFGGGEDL

[2] = molecular target: T2, diketide-ACP2(4) (DEBS ACP2 with the C-terminal linker of module 4, loaded with diketide), Q03131
T2 chain: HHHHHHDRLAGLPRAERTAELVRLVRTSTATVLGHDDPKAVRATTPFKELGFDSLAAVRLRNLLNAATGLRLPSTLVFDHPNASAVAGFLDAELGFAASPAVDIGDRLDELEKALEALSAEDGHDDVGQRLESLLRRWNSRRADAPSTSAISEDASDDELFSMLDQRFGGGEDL

B1: (5)M3+TE (module 3 of DEBS with the N-terminal linker of module 5, fused to thioesterase) (protein)
chain: MSGDNGMTEEKLRRYLKRTVTELDSVTARLREVEHRAGIAIVSMACRLPGGVNTPQRLWELLREGGETLSGFPTDRGWDLARLHHPDPDNPGTSYVDKGGFLDDAAGFDAEFFGVSPREAAAMDPQQRLLLETSWELVENAGIDPHSLRGTATGVFLGVAKFGYGEDTAAAEDVEGYSVTGVAPAVASGRISYTMGLEGPSISVDTACSSSLVALHLAVESLRKGESSMAVVGGAAVMATPGVFVDFSRQRALAADGRSKAFGAGADGFGFSEGVTLVLLERLSEARRNGHEVLAVVRGSALNQDGASNGLSAPSGPAQRRVIRQALESCGLEPGDVDAVEAHGTGTALGDPIEANALLDTYGRDRDADRPLWLGSVKSNIGHTQAAAGVTGLLKVVLALRNGELPATLHVEEPTPHVDWSSGGVALLAGNQPWRRGERTRRARVSAFGISGTNAHVIVEEAPEREHRETTAHDGRPVPLVVSARTTAALRAQAAQIAELLERPDADLAGVGLGLATTRARHEHRAAVVASTREEAVRGLREIAAGAATADAVVEGVTEVDGRNVVFLFPGQGSQWAGMGAELLSSSPVFAGKIRACDESMAPMQDWKVSDVLRQAPGAPGLDRVDVVQPVLFAVMVSLAELWRSYGVEPAAVVGHSQGEIAAAHVAGALTLEDAAKLVVGRSRLMRSLSGEGGMAAVALGEAAVRERLRPWQDRLSVAAVNGPRSVVVSGEPGALRAFSEDCAAEGIRVRDIDVDYASHSPQIERVREELLETTGDIAPRPARVTFHSTVESRSMDGTELDARYWYRNLRETVRFADAVTRLAESGYDAFIEVSPHPVVVQAVEEAVEEADGAEDAVVVGSLHRDGGDLSAFLRSMATAHVSGVDIRWDVALPGAAPFALPTYPFQRKRYWLQPAAPAAASDELAYRVSWTPIEKPESGNLDGDWLVVTPLISPEWTEMLCEAINANGGRALRCEVDTSASRTEMAQAVAQAGTGFRGVLSLLSSDESACRPGVPAGAVGLLTLVQALGDAGVDAPVWCLTQGAVRTPADDDLARPAQTTAHGFAQVAGLELPGRWGGVVDLPESVDDAALRLLVAVLRGGGRAEDHLAVRDGRLHGRRVVRASLPQSGSRSWTPHGTVLVTGAASPVGDQLVRWLADRGAERLVLAGACPGDDLLAAVEEAGASAVVCAQDAAALREALGDEPVTALVHAGTLTNFGSISEVAPEEFAETIAAKTALLAVLDEVLGDRAVEREVYCSSVAGIWGGAGMAAYAAGSAYLDALAEHHRARGRSCTSVAWTPWALPGGAVDDGYLRERGLRSLSADRAMRTWERVLAAGPVSVAVADVDWPVLSEGFAATRPTALFAELAGRGGQAEAEPDSGPTGEPAQRLAGLSPDEQQENLLELVANAVAEVLGHESAAEINVRRAFSELGLDSLNAMALRKRLSASTGLRLPASLVFDHPTVTALAQHLRICCAGTAAISGPHEFTRLAGALRGIAPVRAVPQPGYEEGEPLPSSMAAVAAVQADAVIRTQGDKPFVVAGHSAGALMAYALATELLDRGHPPRGVVLIDVYPPGHQDAMNAWLEELTATLFDRETVRMDDTRLTALGAYDRLTGQWRPRETGLPTLLVSAGEPMGPWPDDSWKPTWPFEHDTVAVPGDHFTMVQEHADAIARHIDAWHHHHHH
kcat/KM, fold decrease against the matched reaction (FIG. 27 C) [1]: fell approximately 3-5 fold and 80-200 fold, respectively | triketide lactone formation at 20 µM substrate (FIG. 27 C) [1]: transfer of diketide from the donor ACP to the acceptor module occurred at 20 µM substrate concentration | KM of transfer and elongation, fold increase against the natural linker pair (diketide-ACP2(2) with (3)M3+TE) [2]: increases the KM for the ACP2-module 3 reaction by approximately 7-fold | kcat/KM [2]: the kcat/KM value decreases to 56 min^-1mM^-1
